In a protein production outcome set (Wang et al. 2014):

Assay: label from the status in PepcDB records

## MNKERGMKGTCLCGAIEVIAEPKNEVSLCHCSMCRKWSSGALHAVHCGPEVTFKGAEPKRYQSSDWAVRGFCGECGTNLFYHLLPTNEYILSAGLFDNPDFKLTLEIFTDEKPGYYELNPHSKKMTAQEVYDQFVPKE
  protein production: failed

## ISCSDPNPLDSYTRVPFEKTETDDGNGDGDGDGAGGLFEKGNGTDSKPYMIMNATQIRNMRSVLKSGMKVYFQLGADIDMAGIDDWQSLNGSGDFPYEIDFDGDSHVIKNFKCSAGDYPSFFGVLCGDCRNVGFVNASVSSARQGIGIITGYLGLKDKGNGNKTGRIVNCYTTGEVIGSGAAGGIAGVLANSYDGQESYIKNCYSNATVSDRAASGGKAGGIAGRKVGVGGFIENCYAYGAVSATKGGVGGILGQIDKSCDIAIKNSAAWSNLTGVDASSTVGRIVGVSASLGSYENCYACESIVLKVNEKTITASDESSATGTTFHGVAKSAEELGNIIVAWNPNLWKKGTNGYPIFQWSE
  protein production: not failed

## MPTYSAMANTDGGIVILGVRERKGQFEVAGIENPDKLRTELFNHLNNRQKVSVNLLRDEDVRAWPVEGKTLLVVEIPRARRQQRPVYLRGNPLGGHTYRRLHEGDRPLEHHHHHH
  protein production: failed

## MQAQDATQLLEGVPLPLVLIGPDERIRAANAPAQRLFGAASVARHYVMAMRQPALLDAIEGAIRLDRPGRARYIITGPSREVTYRATVTPVRIHGESCALCAFEDITEQEQMGAIRRDFVANVSHELRTPLTALLGFIETLQGAARDDPAARSRFLGIMAREAGRMNRLVQDLLSLSRVESEERVRPKTPVDVTAVIGQAIAALRPMAEAAGVEIQRQGEAGPILLPGDPDQLTQVFHNLIENAVKYGASGKLVTVGISRDAEGLARLGPAVRIEVVDRGEGIDAIHLPRLTERFYRVDNHRSREKGGTGLGLAIVKHIVNRHRGRFLIESELGQGSRFIVTLPLA
  protein production: failed

## MRADALKRREHIITTTCNLYRTHHHDSLTMENIAEQAGVGVATLYRNFPDRFTLDMACAQYLFNVVISLQLQAISTFPTDPEGVWTSFNQLLFDRGLGSLVPALAPESLDDLPDEVSALRRTTEKNTTTLINLAKQHGLVHHDIAPGTYIVGLITISRPPITALATISENSHKALLGLYLSGLKHGMMANIGEHDGKS
  protein production: not failed

## PDATSKKVVPLGVEIYEINGPFFFGVADRLKGVLDVIEETPKVFILRMRRVPVIDATGMHALWEFQESCEKRGTILLLSGVSDRLYGALNRFGFIEALGEERVFDHIDKALAYAKLLVETAEERGRES
  protein production: not failed

## MSQFFYIHPDNPQQRLINQAVEIVRKGGVIVYPTDSGYALGCKIEDKNAMERICRIRQLPDGHNFTLMCRDLSELSTYSFVDNVAFRLMKNNTPGNYTFILKGTKEVPRRLLQEKRKTIGMRVPSNPIAQALLEALGEPMLSTSLMLPGSEFTESDPEEIKDRLEKQVDLIIHGGYLGQKPTTVIDLTDDTPVVVREGVGDVKPFL
  protein production: not failed

## MAAKLEKTTNSFEVITREWYAKFSPTWNESHGERIIRRFERDIFPWIGSKPISEIAAPELLATVRRIESRGAVETAHRALGNCGQVFRYAIATARATRDISADLRGALPPVKGEHLEHHHHHH
  protein production: not failed

## MEKDKKTTAKIYPFYPNGQFYFERGVEAFREQRIKEAIRYLVRASELEPGEPVILCQLAICYTEIGQFHKSNQLLREIMEKRLGNMEYCYYFIANNFAYMKDYRRALQYASRYLEIAADGDYAEEAKDLIEVLLEETPFGETIENGFSKLEQEFYSYKKEINRYLAEEDSASACDILKKVIDEKPNFWPAYNQLAALYFEQLKEEEGVKVLSDLIARNPGNLLGLCDLFIYHFYKGNREEADSLYSELRDVLPVLSHHKEKIGLIHAMMGDYEEADDLLEQVADLEVTERSKYYYYRAKSAYYLDEVEEAKMFWHSFLECDLYEDTRFPWEQEADLTNDTRLVLEMLQAESDMTHLLGVYAMTVSGNRPEFVLFHPLLDMSSWSYMEHLMFTDFDYFPDGNVEQNCYLIMKAMTILRENGLLLNEENLPLYETIFSLVLMENRKELILGRYTIETVASAIAKIFLPEMKLASVDEFECSKCARDIEQFLSR
  protein production: failed

## MGRPRVARLDRERIAEAALELVDRDGDFRMPDLARHLNVQVSSIYHHAKGRAAVVELVRHRVVREIDGSAFERLPWDEAFSEWARSYRAAFSRHPTAIRLLATETVRDPGSLSVYHSAAAGLRGAGFPDDHIMAVITAAENFLLGAALDAAAPEVMIEADSTTTDDALTRALAAAPRGPERAEQAFELGLAALLAGFHHLLQECGAVQR
  protein production: not failed
